# From US9533026B2, “Polypeptide compounds for inhibiting angiogenesis and tumor growth” (VasGene Therapeutics, Inc., priority 2004, dated 2017)
# Where two headings read alike, the source gives them in different places.
# Tests used:
# [1] = In vitro stability in mouse serum (retained B2-AP binding); format: in vitro ADME
# Protocol: Both soluble EphB4 ectodomain protein (sB4) and EphB4 ectodomain fused to HSA (HSA-sB4) were biotin labeled through carbohydrate chains using sodium meta-periodate as an oxidant and EZ-Link Biotin Hydrazide (PIERCE, Cat. #21339) according to manufacture's protocol. The in vitro stability of the biotinylated sB4 protein was tested by incubating […] with 40 μL of mouse serum at 37° C. for 0, 0.5, 1, 2 and 3 days. Two μL of magnetic beads and B2-AP was added for an extra hour at room temperature. After washing twice with buffer, pnPP was added for 1 hour.
# The fractions were also tested for their stability in vitro. The fractions were tested for retention of EphrinB2 binding activity after incubation in mouse serum at 37° C. for three days.
# EphrinB2 [2] = molecular target: T1, EphrinB2 (Homo sapiens, UniProt P52799); experiment: EphrinB2 (B2-AP) binding assay on affinity magnetic beads; details: SP column fractions 1, 2 and 3
# T1 construct: protein fusion of Ephrin B2 ectodomain with placental alkaline phosphatase
# T1 sequence (P52799 28-229 limits assumed): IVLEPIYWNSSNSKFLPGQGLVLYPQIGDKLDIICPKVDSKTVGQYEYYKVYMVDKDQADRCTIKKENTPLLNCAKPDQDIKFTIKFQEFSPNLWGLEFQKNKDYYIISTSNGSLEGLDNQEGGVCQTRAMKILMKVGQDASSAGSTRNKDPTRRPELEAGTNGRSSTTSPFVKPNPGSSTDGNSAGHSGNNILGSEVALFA
# From the text: To test whether the B4-HSA fusion property retained the ability of the EphB4 extracellular domain to bind to EphrinB2, the ability of the purified B4-HSA fusion was compared to that of GCF2F, GCF2, GC, CF and B4-Fc fusion, which comprises the extracellular domain of B4 fused to hIgG1 Fc as described in Example 1. Biotinylated or His-tag protein samples were inoculated with the corresponding affinity magnetic beads and B2-AP for an hour at room temperature, before addition of PnPP. Results of binding assays are shown on FIG. 67.
# Fractions 1, 2 and 3 of biotinylated and PEGylated sB4 from the SP column purification, corresponding to polypegylated, monopegylated and unpegylated biotinylated sB4, were tested for their ability to bind EphrinB2 using the standard assay. Results of this experiment are shown on FIG. 72.
# EphB4 receptor = experiment: Cell-based EphB4 tyrosine kinase assay in PC3 cells; design: species or system human; details: Ephrin B2-Fc ligand preincubated with protein
# Protocol: All four proteins were also tested for their ability to block ligand-dependent dimerization and activation of Eph B4 receptor kinase in PC3 cells. The PC3 human prostate cancer cell line is known to express elevated levels of human Eph B4. Stimulation of PC3 cells with Ephrin B2 IgG Fc fusion protein leads to a rapid induction of tyrosine phosphorylation of the receptor. However, preincubation of the ligand with GCF2, GCF1 or GC, but not CF2 proteins suppresses subsequent EphB4 autophosphorylation.
# The human prostate carcinoma cell line PC3 cells were maintained in RPMI medium with 10% dialyzed fetal calf serum and 1% penicillin/streptomycin/neomycin antibiotics mix. Cells were maintained at 37° C. in a humidified atmosphere of 5% CO2/95% air. Typically, cells were grown in 60 mm dishes until confluency and were either treated with mouse Ephrin B2-Fc fusion at 1 μg/ml in RPMI for 10 min to activate EphB4 receptor or plain medium as a control. To study the effect of different derivatives of soluble EphB4 ECD proteins on EphB4 receptor activation, three sets of cells were used. In the first set, cells were treated with various proteins (5 proteins; GC, GCF1, GCF2, GCF2-F, CF2) at 5 μg/ml for 20 min. In the second set of cells, prior to application, proteins were premixed with ephrinB2-Fc at 1:5 (EphB4 protein:B2-Fc) molar ratio, incubated for 20 min and applied on cells for 10 min. In the third set of cells, cells were first treated with the proteins for 20 min at 5 μg/ml, media was replaced with fresh media containing 1 μg/ml of EphrinB2-Fc and incubated for another 10 min.
# After the stimulation, cells were immediately harvested with protein extraction buffer containing 20 mM Tris-HCl, pH 7.4, 150 mM NaCl, 1% (v/v) Triton X100, 1 mM EDTA, 1 mM PMSF, 1 mM Sodium vanadate. Protein extracts were clarified by centrifugation at 14,000 rpm for 20 min at 4° C. Clarified protein samples were incubated overnight with protein A/G coupled agarose beads pre-coated with anti-EphB4 monoclonal antibodies. The IP complexes were washed twice with the same extraction buffer containing 0.1% Triton X100. The immunoprecipitated proteins were solubilized in 1×SDS-PAGE sample loading buffer and separated on 10% SDS-PAGE. For EphB4 receptor activation studies, electroblotted membrane was probed with anti-pTyr specific antibody 4G10 at 1:1000 dilution followed by Protein G-HRP conjugate at 1:5000 dilutions.
# EphrinB2 [3] = molecular target: T1, EphrinB2; experiment: Ephrin B2-AP binding to immobilized EphB4EC proteins; details: B4 proteins immobilized on Ni2+-resin or nitrocellulose
# Protocol: 10 μl of Ni-NTA-Agarose were incubated in microcentrifuge tubes with 50 μl of indicated amount of B4ECv3 diluted in binding buffer BB (20 mM Tris-HCl, 0.15 M NaCl, 0.1% bovine serum albumin pH 8) After incubation for 30 min on shaking platform, Ni-NTA beads were washed twice with 1.4 ml of BB, followed by application of 50 μl of B2-AP in the final concentration of 50 nM. Binding was performed for 30 min on shaking platform, and then tubes were centrifuged and washed one time with 1.4 ml of BB. Amount of precipitated AP was measured colorimetrically after application of PNPP.
# To confirm ability of the purified recombinant proteins to bind Ephrin B2, they were tested in an in vitro binding assay. As expected, GC, GCF1 and GCF2, but not CF2 are binding the cognate ligand Ephrin B2 as confirmed by interaction between Ephrin B2-alkaline phosphatase (Ephrin B2-AP) fusion protein with the B4 proteins immobilized on Ni^2+-resin or on nitrocellulose membrane (FIG. 17).
# [4] = retention of EphrinB2 binding, mouse serum, 37° C., three days
Molecule,B2 binding activity lost [1],order of in vitro stability [1],order of binding activity (EphrinB2 [2]),"order of in vitro stability [1, 4]",EphB4 autophosphorylation (EphB4 receptor),binding the cognate ligand Ephrin B2 (EphrinB2 [3])
"sB4: soluble EphB4 ectodomain protein, biotin labeled through carbohydrate chains; SP column fraction 3 (protein) LEETLLNTKLETADLKWVTFPQVDGQWEELSGLDEEQHSVRTYEVCDVQRAPGQAHWLRTGWVPRRGAVHVYATLRFTMLECLSLPRAGRSCKETFTVFYYESDADTATALTPAWMENPYIKVDTVAAEHLTRKRPGAEATGKVNVKTLRLGPLSKAGFYLAFQDQGACMALLSLHLFYKKCAQLTVNLTRFPETVPRELVVPVAGSCVVDAVPAPGPSPSLYCREDGQWAEQPVTGCSCAPGFEAAEGNTKCRACAQGTFKPLSGEGSCQPCPANSHSNTIGSAVCQCRVGYFRARTDPRGAPCTTPPSAPRSVVSRLNGSSLHLEWSAPLESGGREDLTYALRCRECRPGGSCAPCGGDLTFDPGPRDLVEPWVVVRGLRPDFTYTFEVTALNGVSSLATGPVPFEPVNVTTDREVPPAVSDIRVTRSSPSSLSLAWAVPRAPSGAVLDYEVKYHEKGAEGPSSVRFLKTSENRAELRGLKRGASYLVQVRARSEAGYGPFGQEHHSQTQLDESEGWREQLA",less than 10%,monopegylated>unpegylated>polypegylated,Unpegylated>monopegylated>polypegylated,,,
"polypegylated: fraction 1: polypegylated biotinylated sB4, linear PEG-succinimidyl propionate of about 20 kda (conjugate) LEETLLNTKLETADLKWVTFPQVDGQWEELSGLDEEQHSVRTYEVCDVQRAPGQAHWLRTGWVPRRGAVHVYATLRFTMLECLSLPRAGRSCKETFTVFYYESDADTATALTPAWMENPYIKVDTVAAEHLTRKRPGAEATGKVNVKTLRLGPLSKAGFYLAFQDQGACMALLSLHLFYKKCAQLTVNLTRFPETVPRELVVPVAGSCVVDAVPAPGPSPSLYCREDGQWAEQPVTGCSCAPGFEAAEGNTKCRACAQGTFKPLSGEGSCQPCPANSHSNTIGSAVCQCRVGYFRARTDPRGAPCTTPPSAPRSVVSRLNGSSLHLEWSAPLESGGREDLTYALRCRECRPGGSCAPCGGDLTFDPGPRDLVEPWVVVRGLRPDFTYTFEVTALNGVSSLATGPVPFEPVNVTTDREVPPAVSDIRVTRSSPSSLSLAWAVPRAPSGAVLDYEVKYHEKGAEGPSSVRFLKTSENRAELRGLKRGASYLVQVRARSEAGYGPFGQEHHSQTQLDESEGWREQLA",,,Unpegylated>monopegylated>polypegylated,monopegylated>unpegylated>polypegylated,,
"monopegylated: fraction 2: monopegylated biotinylated sB4, linear PEG-succinimidyl propionate of about 20 kda (conjugate) LEETLLNTKLETADLKWVTFPQVDGQWEELSGLDEEQHSVRTYEVCDVQRAPGQAHWLRTGWVPRRGAVHVYATLRFTMLECLSLPRAGRSCKETFTVFYYESDADTATALTPAWMENPYIKVDTVAAEHLTRKRPGAEATGKVNVKTLRLGPLSKAGFYLAFQDQGACMALLSLHLFYKKCAQLTVNLTRFPETVPRELVVPVAGSCVVDAVPAPGPSPSLYCREDGQWAEQPVTGCSCAPGFEAAEGNTKCRACAQGTFKPLSGEGSCQPCPANSHSNTIGSAVCQCRVGYFRARTDPRGAPCTTPPSAPRSVVSRLNGSSLHLEWSAPLESGGREDLTYALRCRECRPGGSCAPCGGDLTFDPGPRDLVEPWVVVRGLRPDFTYTFEVTALNGVSSLATGPVPFEPVNVTTDREVPPAVSDIRVTRSSPSSLSLAWAVPRAPSGAVLDYEVKYHEKGAEGPSSVRFLKTSENRAELRGLKRGASYLVQVRARSEAGYGPFGQEHHSQTQLDESEGWREQLA",,,Unpegylated>monopegylated>polypegylated,monopegylated>unpegylated>polypegylated,,
"GCF2: recombinant protein containing the complete ectopic part of EphB4, 6xHis tagged, SEQ ID NO:14 (protein, Recombinant FL-hB4EC) MELRVLLCWASLAAALEETLLNTKLETADLKWVTFPQVDGQWEELSGLDEEQHSVRTYEVCEVQRAPGQAHWLRTGWVPRRGAVHVYATLRFTMLECLSLPRAGRSCKETFTVFYYESDADTATALTPAWMENPYIKVDTVAAEHLTRKRPGAEATGKVNVKTLRLGPLSKAGFYLAFQDQGACMALLSLHLFYKKCAQLTVNLTRFPETVPRELVVPVAGSCVVDAVPAPGPSPSLYCREDGQWAEQPVTGCSCAPGFEAAEGNTKCRACAQGTFKPLSGEGSCQPCPANSHSNTIGSAVCQCRVGYFRARTDPRGAPCTTPPSAPRSVVSRLNGSSLHLEWSAPLESGGREDLTYALRCRECRPGGSCAPCGGDLTFDPGPRDLVEPWVVVRGLRPDFTYTFEVTALNGVSSLATGPVPFEPVNVTTDREVPPAVSDIRVTRSSPSSLSLAWAVPRAPSGAWLDYEVKYHEKGAEGPSSVRFLKTSENRAELRGLKRGASYLVQVRARSEAGYGPFGQEHHSQTQLDESEGWREQGSKRAILQIEGKPIPNPLLGLDSTRTGHHHHHH",,,,,suppresses,binding
"CF2: EphB4 ECD version with deleted globular domain, SEQ ID NO:15 (protein, Recombinant B4-CF2) MELRVLLCWASLAAALEETLLNTKLETQLTVNLTRFPETVPRELVVPVAGSCVVDAVPAPGPSPSLYCREDGQWAEQPVTGCSCAPGFEAAEGNTKCRACAQGTFKPLSGEGSCQPCPANSHSNTIGSAVCQCRVGYFRARTDPRGAPCTTPPSAPRSVVSRLNGSSLHLEWSAPLESGGREDLTYALRCRECRPGGSCAPCGGDLTFDPGPRDLVEPWVVVRGLRPDFTYTFEVTALNGVSSLATGPVPFEPVNVTTDREVPPAVSDIRVTRSSPSSLSLAWAVPRAPSGAWLDYEVKYHEKGAEGPSSVRFLKTSENRAELRGLKRGASYLVQVRARSEAGYGPFGQEHHSQTQLDESEGWREQGGRSSLEGPRFEGKPIPNPLLGLDSTRTGHHHHHH",,,,,not,not
